Data taken from the DeepSol protein solubility set.

Assay: soluble on expression in E. coli; label from the status in PepcDB or PDB records

Sequence	soluble on expression in E. coli
MSLTIAHDIDLSAVLAERLTTTHPDVLRELLAAFIHALMGAEADAVCGAGYGQRSSERTNSRNGYRHREFDTRAGTLDLAIPKLRQGSYFPDWLLERRKRAERALTTVVATCYLLGVSTRRMDKLVETLGITSLSKSQVSVMAKELDAAVEAFRTRPLDAGPYTFMAADALVLKVREAGRVVNVHALIATGVNAEGYREILGIDVTTTEDGAGWLTFLRSLTARGLSGVRLVTSDAHAGLVAAIGATLPGASWQRCRTHYATNLMAITPKSSWPWVRTLLHSVFDQPDAGSVAAQYDRIIDALADKLPKVADHLEDTRADLLAFTAFPKQIWRQIWSNNPQVICSPRDGVFDVRHEVLRSQVLRAGHAYLQLSRRQEPAEGRCRLHELSRRSRCVSRGEGHHHHHH	not soluble
MVGWRRMGLPADSLSDEALLALVARGDEEAFRALFRRYAGSFLALARRMGLDGAAAEDVVQEAMIRVWQKAKEFDPRRGSARAFLLTLGHHAAVDEVRRRAARPLPLEPDPEREEEAFDLPGPGLDEEGHLDRTRLGRALKALSPEERRVIEVLYYQGYTHREAASLLGLPLGTLKTWARRALSKLKEVLREP	soluble
MQDRNFDDIAEKFSRNIYGTTKGQLRQAILWQDLDRVLAEMGPQKLRVLDAGGGEGQTAIKMAERGHQVILCDLSAQMIDRAKQAAEAKGVSDNMQFIHCAAQDVASHLETPVDLILFHAVLEWVADPRSVLQTLWSVLRPGGVLSLMFYNAHGLLMHNMVAGNFDYVQAGMPKKKKRTLSPDYPRDPAQVYLWLEEAGWQIMGKTGVRVFHDYLREKYQQRDCYEALLELETRYCRQEPYITLGRYIHVTARKPQSKDKV	not soluble
STSCVAEEPIKKIAIFGGTHGNELTGVFLVTHWLKNGAEVHRAGLEVKPFITNPRAVEKCTRYIDCDLNRVFDLENLSKEMSEDLPYEVRRAQEINHLFGPKNSDDAYDVVFDLHNTTSNMGCTLILEDSRNDFLIQMFHYIKTCMAPLPCSVYLIEHPSLKYATTRSIAKYPVGIEVGPQPHGVLRADILDQMRRMLKHALDFIQRFNEGKEFPPCAIDVYKIMEKVDYPRNESGDVAAVIHPNLQDQDWKPLHPGDPVFVSLDGKVIPLGGDCTVYPVFVNEAAYYEKKEAFAKTTKLTLNAKSIRSTLH	not soluble
MPVGTAEGIYKRRAIGGTGRPECLPYHFHEMQGALAHRGALDYSALPVQGASWSDLDPLEFERFRRFIRESRGQGDKSLLDLPDVELAKALGAVKANHEVRTVRVLGLLLFGKEEALQRFIPTHEVAFQVLRGTRVEVNDFFRWPLLRTMEELLTRFRAWNHEEEVSFGLMRIGVPNYSERAFREGLANALIHRDYTRLGAVHVQWHEDRIEISNPGGFPEGIHLGNLLVAPPRPRNPLLADAFKRAGVVERTGRGIDIIFEEQLRNGRPAPSYEQSTPESVVLVLPGGEANLNFVRLIVEEGQARRPLRLDELLVLNGLWQERQLTTKEAARLIQKTEATARAVLERLVETGLIEARGTGRGRTYHLSASTYRRLGEEAAYVRLKGFEHQQMEQMVLEYVRAHGRITRREAAELCRIGPYQATRLLKRMVEQGKLTPHGVGKGTWYALRS	soluble
MSLKKIVIVGAGFAGVSATRLLAKNLKNDAEITVIDKHDFQTSMTQLHEVAASRVEADAVQYHLNRTIGKFNNVKVVKESLVELDKANKKVITDKNSYDYDYLVVSMGGEPNDFGVPGVNEYGFTLWSLEDALKIKAHLKEMVQAAAKEADSEKRKKLLTFSVAGSGFTGIEMAGELIDWRKKASKKYGIPESEFTINIVEMMPTIMNILDRSLADKALVYLQNKNINVLVNHGITAVAQDHITVNVGGRDEEKVVKEIPGNTLIWTTGVQGNTEAEACQLSETERGHRLQANEYMEAIGEENHGIYVAGDVSGYIVPENGRPTPQIVEAAEQTGSTAAKNIIADIKGGEKEGHHHHHH	soluble
MGSDKIHHHHHHMQGDKHRRRVPFASRAEAHARYGAILTEANRHGAQVVLATLAELGRLDLFFLLVVLLKRKDADNDWCFARCREVAASPDGHLDLWAREHYKSTIITFALTIQDILCTPDITVGIFSHSRPGAKAFLQQIKREFEENPVLRAAYPDVLWDNPRTDAPQWSLDGGIVVKRASNPKEATVEAWGLVDGQPIGKHFSLLVYDDVVTPESVTTPDQIRKTTDALAVSYNLGAHGGRRRFIGTRYHFSDTYKDILDRETAVPRIYPATVDGSVTGLPHFLSPEALAAKRRDMGPYIFGCQMLQNPKADDAAGFKAEWLRYWEPSRDLCERMNRYIIVDPAHSKKAAADYTVMWVVGFGADGYRYVIEGVRDRLNLAERTRELFRLVRAHRPLCVGYERYGLQADVEHIRGEQDRTGYHFDIVELGGAMPKADRIRRLVPLFEQGRIFLPGRMSYRDVEGRWRDLTGEFVQEEYLAFPVCGHDDMLDCLARQVDEALGAVFPDEDDYAASVGGMPNDPHAGALTSLGFDDYDPLGHMRASS	not soluble
GPGSMDTLTHLSHTLREAMSDIVPESHPEHPFNLIPELCRKFYDLGWATGTGGGISIKMGENYYIAPSGVQKERIKPNEIFVLNASQDVVEEPRTEKQLKISECTPLFFNAYRMRGAGACLHTHSANCVLISLLCDREFRISHIEMIKGIINNETKKALGFRDTLVIPIIENTDFERDLTASMAECMERYPESCAVLVRRHGMYVWSDTWQKAKGAVECIDYLMGLAIRMRTLGLEWEPKDVK	soluble
MGSDKIHHHHHHMTDSTTLYPVFAEELLPGGGHRSFILKRGELLRLTDLNGNANVSLTLLNAHEKTERLNLPDSLKCQHTAKLSNGHCLYSDMGRVLAAIVTDTCGWSDSIGGVLNAQEVAEKYGQGRYQELRNGFFRNGVDNLLVELGKWGLGLSDLLMTLNLFSRVDVSETGTLHFAPNNSKAGDYIELYAPMDTLVVLTALQHPMDPNPDYVPQPLTLSWMKADASVAEHCRTSRPENERGFINTDRLFA	not soluble
MGSDKIHHHHHHMKFLDVNQHLSELDEHIKVLKSYGDVFEAVEARITRVINMDGAFKGEGAKGVIYNHTHMQLPTIRSIRAFLISFSDTLEKMKANITEYEPASNGSVSENFWKNQLPKAYDRYEETLEEREATINQATAQVSHILHLGKLQTGDLYNSVDSARKHADTVLEGLYDLDQAGVELMAQVRTKMEELKATIRQVLDWNMTGGVTMKGVSIMEIGGYFANNATLHEKAPEVKVELLDLNPLVQYANDFPLRFKYDTMHSINESI	not soluble
MKLDPQTLAHITSATLGNYNRVADDFREGTRDHDVSQNIDALLRHIEGSAPWQILDFGCGPGRDLKTFTAMGHVAVGLDGSERFAEMARAETGCEVFQQNFLELDLPQGRFDGIFANAVLFHIPRQELPRVLRELYATLKPGGVLFSSNPRGQNQEGWQGERYGAYHDLETWRQLLTDAGFAELEHYYRPLEHHHHHH	soluble
MDKSTKDFMDLKKIGGDDERERRFSDASDTSMDCHMESIGSRRRDSLIEQFRDFLNRSMDFSVKIDDPFEKEMY	not soluble
MERAPLLELKGIRKRFGELEVLRGVDLALYPGEILALLGPSGCGKTTLLRVVAGLEVPDAGRVFLEGRDITALPPEKRGIGFVFQDYALFPHLTALGNVAFGLKGKDRLARARKALERVGMTLFQDRRPGELSGGQQQRVALARALAPGPKLVLLDEPFSSLDAGLRAATREEVRKVLKETGTAALLVTHDQEEALSFADRLGVMRGGEILQVGTPEEVYLRPKTPFVAQFLGRTNLLPGEGRGRYAETCLGRVPLAEAREGPLLLSLRPEALRLTPPGQGPQGEVVAREFKGHDLTYRVRLHGVQPEREVLVQEGPTCPFKVGDRVGLEVVGEGVALEGTPPAPVRQEA	soluble
MDSSFTPIEQMLKFRASRHEDFPYQEILLTRLCMHMQSKLLENRNKMLKAQGINETLFMALITLESQENHSIQPSELSCALGSSRTNATRIADELEKRGWIERRESDNDRRCLHLQLTEKGHEFLREVLPPQHNCLHQLWSALSTTEKDQLEQITRKLLSRLDQMEQDGVVLEAMS	not soluble
HHHHHHESDDDDKLAFGAIQLDGDGNILQYNAAEGDITGRDPKQVIGKNFFKDVAPCTDSPEFYGKFKEGVASGNLNTMFEYTFDYQMTPTKVKVHMKKALSGDSYWVFVKRV	soluble
MGSDKIHHHHHHAAEGNDKKQDLIVKTTQAVPVSHQGDKEFSFIARPFRTSELSFRVGGPIDRFDVYAGNRYQQGSIIAEIDPRDFRIRKERAEAIYHQAKAEFERIQKLYGKGNVSASTYEKAKADYITAKTTFNTASYELEDTHLIAPFNGYVGEVYIEKFQDVKATQPIISFIDIDQLKLEIYVTQDIARAVQALDTIQVRFDAQPDKVYNAKIMEISKGTTRNNLSYLLTALLPNKEGKLLAGMSGKASLNAPSVSTLSQGAAIPQTALCHRPTEGDYLWVVNSKTQQVTKRKVKKGDLLPNGYVSITEGLYPDETVANSGLRFLSDGMKISVENE	not soluble
MMFLRQEDFATVVRSTPLVSLDFIVENSRGEFLLGKRTNRPAQGYWFVPGGRVQKDETLEAAFERLTMAELGLRLPITAGQFYGVWQHFYDDNFSGTDFTTHYVVLGFRFRVSEEELLLPDEQHDDYRWLTSDALLASDNVHANSRAYFLAEKRTGVPGL	soluble
MTEMAKGSVTHQQLIALLSQEGANFRVVTHEAVGKCEAVSEIRGTALGQGAKALVCKVKGNGVNQHVLAILAADQQADLSQLASHIGGLRASLASPAEVDELTGCVFGAIPPFSFHPKLKLVADPLLFERFDEIAFNAGMLDKSVILKTADYLRIAQPELVNFRRTA	not soluble
MGSDKIHHHHHHMEIFDYVILGAGLGGLSAAACLTRQGYRVVVLEQHYLPGGCCHTFDYGEYHFCADVHYISQCGSGQTITQFLDYIHQNVPFNSLDSDCIDRVITPEADFKIPLGWENLRSRLLSTFPEEAGAINHYCNEIQQLHQEIRNLVQEVRWYDQKLSDWLKLPKYLNLFWKRNWTLQDLYNHVGLSPKLQAVLAGQSGDYALPPQEIALLTHTSLVWDYSEGAYYPKHHFKHLVDTIADVITAGGGVIKYSTPVSHIQVSNHSVHSVLADGNSYRASKAYISDLDPKLTVELMHDITALSQKEYKRLTNYQYSASAFNIYLGLDSRFDPQRYGIGNWNVWYYPTGDLNREYQQQLEGDFSQPWIFLSCPTMKSSEPGMGPEGHHVLEIATVCSYEPFEHLYKSNPKAYKAKKREFYQQIMTSVRDLIPDVDKYARMKVYGTPTTSEFYLGQPQGNIYGAKLVPKQVGLNRLGYMTELPNLFLVGASAGYPSVPGVIGNGMQVVELLTGQSVWHKAAERPQSLVAIG	not soluble
MAYSNDEIVKGIDGIYSNENPNSNIKYVINESRFNASQLCKTKKGIKQMSDEWLLEDGGKRILEAVNGDRKLQKDIIRVLNKGQVEKVLSRVGKDGKVTTYRLNSNGEIIGFWP	not soluble
MEANKYKIGIIGSRDIILPFSMIGFDIFPAYQEQEAINTLRKLAQSDYGVIYITEDIASMILDTIRHYDSQVVPAIILLPTHKQGLNLGLKRIEDNVEKAVGHNILLEHHHHHH	not soluble
MFTGFGAASFSAPAKAAAQTNTLSENTNQSAAELVKNLYNTAYKGEMPQQAQGLTINKSTKGDVHAAFGEPERPVGGDNRFDLYHWNMGQPGYGFSYHKDMTISEIRYFGTGVERQLNLGGVTPEVLQKQLGPVNRVLTVPFTDEIDYVYDTGRYELHFVIGTDQTADHVNLKAKLEHHHHHH	soluble
MKLPAPPVLLFLCGMFSLPMALADSGIQLDTPKGGWRTRAMDGEQYIQEVNYPASSVNTPQGQADTARIRGQIKGAPKANKEPGKLIVNGVSMPLKFDEQGSFDRPYAFPNGSNSVEVRSPDGQQRQRVQFLNTGGGVTPPKLRVLLSWDSDNTDLDLHLVTPDGAHIWYGDRVAPNGATLDVDVTTGYGPEIFSMPAPLKGQYLVYVNYYGGGYRSDDDEDGGQENAVQPLTTAQVTVITEEGTPDEKSETFVVPMRAPGELTLVRSFSYPLEHHHHHH	not soluble
